The record followed here is PMC7336386, “Methylation of MdMYB1 locus mediated by RdDM pathway regulates anthocyanin biosynthesis in apple”.

First the molecules themselves.
T1: MdAGO4-1 (Malus domestica? (apple), UniProt A0A498JG28 46-911)
T1 sequence: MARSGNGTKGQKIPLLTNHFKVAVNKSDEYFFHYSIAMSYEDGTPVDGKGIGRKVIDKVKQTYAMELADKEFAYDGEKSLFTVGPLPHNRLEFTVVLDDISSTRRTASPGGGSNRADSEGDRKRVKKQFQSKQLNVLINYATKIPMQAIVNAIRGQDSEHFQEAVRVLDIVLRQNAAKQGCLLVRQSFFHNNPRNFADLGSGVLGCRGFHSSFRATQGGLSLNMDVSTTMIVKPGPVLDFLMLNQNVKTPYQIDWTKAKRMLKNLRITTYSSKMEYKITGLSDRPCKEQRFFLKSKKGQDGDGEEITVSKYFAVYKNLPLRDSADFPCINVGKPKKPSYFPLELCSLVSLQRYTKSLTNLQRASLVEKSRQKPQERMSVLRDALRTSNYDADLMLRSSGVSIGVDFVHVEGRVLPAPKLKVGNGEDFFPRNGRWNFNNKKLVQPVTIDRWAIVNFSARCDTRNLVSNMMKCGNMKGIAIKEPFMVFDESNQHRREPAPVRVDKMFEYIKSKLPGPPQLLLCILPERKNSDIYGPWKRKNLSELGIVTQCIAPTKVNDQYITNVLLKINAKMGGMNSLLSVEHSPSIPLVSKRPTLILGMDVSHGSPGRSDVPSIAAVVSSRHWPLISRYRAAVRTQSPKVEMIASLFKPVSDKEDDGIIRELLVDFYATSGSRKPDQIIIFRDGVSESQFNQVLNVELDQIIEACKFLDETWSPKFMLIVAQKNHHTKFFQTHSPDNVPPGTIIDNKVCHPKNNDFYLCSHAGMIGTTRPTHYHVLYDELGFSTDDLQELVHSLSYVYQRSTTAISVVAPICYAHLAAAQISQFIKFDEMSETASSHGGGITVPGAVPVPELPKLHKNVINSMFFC

T2: MdAGO4-1 without PAZ domain (Malus domestica? (apple), UniProt A0A498JG28 46-274+435-911, internal_change)
T2 sequence: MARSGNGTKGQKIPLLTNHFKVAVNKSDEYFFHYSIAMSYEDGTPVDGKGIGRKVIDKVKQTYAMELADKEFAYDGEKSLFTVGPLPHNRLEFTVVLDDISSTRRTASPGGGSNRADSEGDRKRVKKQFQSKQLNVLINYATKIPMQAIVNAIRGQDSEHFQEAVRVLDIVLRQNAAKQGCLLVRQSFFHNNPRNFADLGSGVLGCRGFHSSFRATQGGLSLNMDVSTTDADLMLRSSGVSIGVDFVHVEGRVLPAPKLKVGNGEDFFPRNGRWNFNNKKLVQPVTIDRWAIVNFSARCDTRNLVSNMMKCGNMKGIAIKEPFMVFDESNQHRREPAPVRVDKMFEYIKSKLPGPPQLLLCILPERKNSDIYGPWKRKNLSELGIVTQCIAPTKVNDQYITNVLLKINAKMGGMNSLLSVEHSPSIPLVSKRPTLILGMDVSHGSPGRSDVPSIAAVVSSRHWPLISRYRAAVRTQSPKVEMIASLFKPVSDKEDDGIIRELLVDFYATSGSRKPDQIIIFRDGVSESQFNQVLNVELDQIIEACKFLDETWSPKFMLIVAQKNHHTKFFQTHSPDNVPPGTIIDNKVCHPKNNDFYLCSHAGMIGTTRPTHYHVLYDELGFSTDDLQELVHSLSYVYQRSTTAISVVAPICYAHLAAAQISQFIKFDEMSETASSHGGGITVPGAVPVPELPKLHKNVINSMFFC

B1: 2-m5 (dsDNA)
DNA 1: TGTCAGTGTTTGCTTCTGTGGATATCAGACATGCACGTCA
DNA 2: TGACGTGCATGTCTGATATCCACAGAAGCAAACACTGACA
B2: MdMYB1 probe2 (dsDNA)
DNA 1: TGTCAGTGTTTGCTTCTGTGGATATCAGACATGCACGTCACTGGCCTT
DNA 2: AAGGCCAGTGACGTGCATGTCTGATATCCACAGAAGCAAACACTGACA
B3: 2-m3 (m3 region … not intact) (dsDNA)
DNA 1: TGTCAGTGTTTGCTTCTGTGATGCACGTCACTGGCCTT
DNA 2: AAGGCCAGTGACGTGCATCACAGAAGCAAACACTGACA
B4: 2-m4 (dsDNA)
DNA 1: TGTCAGTGTTTGCTTCTGTGGATATCAGACCTGGCCTT
DNA 2: AAGGCCAGGTCTGATATCCACAGAAGCAAACACTGACA
B5: 2-m2 (dsDNA)
DNA 1: TGTCAGTGTTGATATCAGACATGCACGTCACTGGCCTT
DNA 2: AAGGCCAGTGACGTGCATGTCTGATATCAACACTGACA
B6: 2-m1 (probe2 without m1 region) (dsDNA)
DNA 1: TGCTTCTGTGGATATCAGACATGCACGTCACTGGCCTT
DNA 2: AAGGCCAGTGACGTGCATGTCTGATATCCACAGAAGCA
B7: MdFLS probe (dsDNA)
DNA 1: GTAAAGGGAGTGTGACCATAATATCAGATACACAAACGTCCAAAGCCC
DNA 2: GGGCTTTGGACGTTTGTGTATCTGATATTATGGTCACACTCCCTTTAC
B8: MdGST probe (dsDNA)
DNA 1: TTTTTTATTAAATAAAAAAAGATATCATGCGACAAACATTTATTAAATTG
DNA 2: CAATTTAATAAATGTTTGTCGCATGATATCTTTTTTTATTTAATAAAAAA

The target of the first data set is T1, MdAGO4-1. Kind of data set: EMSA; LightShift Chemiluminescent EMSA Kit (Thermo); buffer, salt, pH and temperature not stated. The conditions noted are these: protein: recombinant; tags: His (pET32a). (In EMSA bound probe runs differently from free probe, usually more slowly.)
B1: the binding result is reported as “binds”.

B2: the binding result is given as “binds”.

With B3, the binding result is reported as “no binding”.

On to B4, for which the binding result is listed as “binds”.

With B5, the binding result is “binds”.

With B6, the binding result is reported as “binds”.

Staying with this data set, now noted: protein: recombinant; tags: His (pET32a); blunt.
As to B7, the binding result is given as “binds”.

With B8, the binding result is “no binding”.

The target of another data set is T2, MdAGO4-1 without PAZ domain. The data set is described as above. The conditions noted are these: protein: recombinant.
Turning to B2, the binding result was “binds”.
